The values below come from patent US20030119072A1 (SIGNAL PHARMACEUTICALS, published 2003).

The target of assay [1] is T1, GST-WWP1.3.
T1 construct: Coated on polystyrene plates; also called WWP1 WW domain 3; not shown: glutathione S-transferase (GST) fusion partner
As to the kind of experiment: TRF (DELFIA) plate assay, GST-WW domain coated at 30 µg/mL, titrated with biotinylated peptide.

The target of assay [2] is T2, GST-WWP1.1.
T2 construct: also called WWP1 WW domain 1; not shown: glutathione S-transferase (GST) fusion partner
T2 sequence (chain, as listed by the source): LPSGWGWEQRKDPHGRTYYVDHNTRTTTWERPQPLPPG
The description is as above.

In assay [3] the target is T3, GST-WWP1.2.
T3 construct: Coated on polystyrene plates; also called second WW domain of WWP1; WWP1 WW domain 2; not shown: glutathione S-transferase (GST) fusion partner
T3 sequence (chain, as listed by the source): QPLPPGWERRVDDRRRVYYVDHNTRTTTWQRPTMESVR
Described as above.

In assay [4] the target is T4, GST-WWP1.4.
T4 construct: Coated on polystyrene plates; also called WWP1 WW domain 4; not shown: glutathione S-transferase (GST) fusion partner
The description is as above.

The target in assay [5] is T1, GST-WWP1.3. As to the kind of experiment: TRF (DELFIA) plate assay, GST-WW domain coated, biotinylated peptide in solution. The method, then:
(§1) Each domain was individually expressed as a GST fusion protein. A TRF binding assay was used to evaluate interactions of PY motif peptides with these domains or GST alone. WW domains were bound to a 96-well polystyrene assay plate (Costar) overnight at 4° C. in a 200 mM carbonate buffer (Pierce, Rockford, Ill.) at different concentrations (0, 1, 3, 10 μg/mL). Unbound WW domain was washed away with distilled, deionized water and the plates were blocked with 1% BSA/carbonate buffer for 2 hours at room temperature. The plates were then washed with Tris/Tween buffer: 50 mM Tris pH 7.5, 100 mM NaCl, 1 mM EDTA, 1% BSA, 1 mM DTT, 0.1% Tween20, protease inhibitor cocktail (Boehringer-Mannheim).
(§2) These biotinylated peptides were solvated in Tris/Tween buffer and added to the assay plates (30 μM). The plates were incubated at 4° C. for varying amounts of capture time. The plates were then washed with PBS/0.1% Triton X100 and probed for 1 hour at room temperature with 1 μg/mL Europium-labeled streptavidin (DELFIA; Wallac Oy, Turku, Finland) in DELFIA Assay Buffer/0.1% Triton X100. The unbound Europium-labeled streptavidin was washed with PBS/0.1% Triton X100. Europium was released for time-resolved fluorescence measurements with the DELFIA Enhancement Buffer. Measurements were made on either the DELFIA 1234 or Victor fluorometers.

The target in assay [6] is T2, GST-WWP1.1. The assay is described as above. On the procedure: as §1, §2
Assay [7] concerns the target T3, GST-WWP1.2. The assay is described as above. The method, then: as §1, §2
Assay [8] concerns the target T4, GST-WWP1.4. The assay is described as above. On the procedure: as §1, §2
The next assay addresses T5, GST alone (UniProt P08515 1-218 = GST).
T5 construct: Control coated on plates in the TRF assay
As to the kind of experiment: TRF (DELFIA) plate assay, GST coated, biotinylated peptide in solution. On the procedure:
as §1, §2

Assay [9] concerns the target T3, GST-WWP1.2. As to the kind of experiment: TRF (DELFIA) plate assay, peptide titration of coated GST-WW domain, GST background subtracted; nonlinear least squares fit and Scatchard analysis. The method, then:
FIGS. 8A-8B are graphs illustrating the binding of increasing concentrations of a Smad7 PY motif peptide to WWP1 WW domain peptides. In FIG. 8A, binding to four GST fusion peptides (GST-WWP1.1, GST-WWP1.2, GST-WWP1.3 and GST-WWP1.4) is shown, as well as binding to RSP5.2 WW domain. WW domain peptides were coated on polystyrene plates at the indicated receptor coating concentrations, and blocked with BSA. Biotinylated PY motif peptide was then added at the indicated concentrations. Binding was assessed using a time-resolved fluorescence assay and is shown as cps. FIG. 8B presents a Scatchard analysis of the Smad7 PY motif to WWP1.2 and WWP1.4, as indicated.
A detailed evaluation of the interactions of Smad 7 with the WWP1 WW domains and the second WW domain from RSP5 was undertaken. GST was used to correct for nonspecific background interactions. The peptide titration of the WW domains was evaluated by a nonlinear, least squares fit of the data and Scatchard analysis (FIGS. 8A-8B).

The target in assay [10] is T1, GST-WWP1.3. As to the kind of experiment: TRF (DELFIA) plate assay, GST-WW domain coated at 0-10 µg/mL, biotinylated peptide 30 µM. On the procedure: as §1, §2
For assay [11], the target named is T3, GST-WWP1.2. The description is as above. On the procedure: as §1, §2
For assay [12], the target named is T4, GST-WWP1.4. The description is as above. The method, then:
as §1, §2

Where no end group is shown, it is not given here. The star is where a group is joined. Biotin = O=C1N[C@H]2[C@H](CS[C@H]2CCCCC(=O)*)N1; Ahx = NCCCCCC(=O)O

T1 sequence (chain, as listed by the source): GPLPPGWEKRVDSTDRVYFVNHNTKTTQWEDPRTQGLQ
T5 sequence (P08515 whole entry): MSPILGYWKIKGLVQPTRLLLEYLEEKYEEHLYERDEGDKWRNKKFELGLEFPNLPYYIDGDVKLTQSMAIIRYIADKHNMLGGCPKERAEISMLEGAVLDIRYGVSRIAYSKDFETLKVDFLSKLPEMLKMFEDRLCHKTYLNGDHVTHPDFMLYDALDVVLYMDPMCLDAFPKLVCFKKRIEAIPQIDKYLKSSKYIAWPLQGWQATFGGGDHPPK

B1: Smad3 PY motif peptide AGLTPPPGYLSEDG (peptide)
peptide: AGLTPPPGYLSEDG
modifications: not fully specified (N-terminus); also: biotin with C6 linker, end not given here
notes: also called Smad 3 peptide
For the molecule B1, the binding result with GST-WWP1.3 [1], with GST-WWP1.1 [2], with GST-WWP1.2 [3] and with GST-WWP1.4 [4] was “no binding” throughout.

B2: Smad5 PY motif peptide PADTPPPAYMPPDD (peptide)
peptide: PADTPPPAYMPPDD
modifications: not fully specified (N-terminus); also: biotin with C6 linker, end not given here
notes: also called Smad 5 peptide
For B2, the binding result with GST-WWP1.3 [1], with GST-WWP1.2 [3] and in the assay with GST-WWP1.4 [4] was “binds” throughout.

B3: Nedd PY motif peptide, Biotin-Ahx-IPGTPPPNYDSLRL-CONH2 (peptide)
peptide: {Biotin-Ahx}-IPGTPPPNYDSLRL-NH2
SMILES: CC[C@H](C)[C@H](NC(=O)CCCCCNC(=O)CCCC[C@@H]1SC[C@@H]2NC(=O)N[C@@H]21)C(=O)N1CCC[C@H]1C(=O)NCC(=O)N[C@H](C(=O)N1CCC[C@H]1C(=O)N1CCC[C@H]1C(=O)N1CCC[C@H]1C(=O)N[C@@H](CC(N)=O)C(=O)N[C@@H](Cc1ccc(O)cc1)C(=O)N[C@@H](CC(=O)O)C(=O)N[C@@H](CO)C(=O)N[C@@H](CC(C)C)C(=O)N[C@@H](CCCNC(=N)N)C(=O)N[C@@H](CC(C)C)C(N)=O)[C@@H](C)O
Regarding B3, the binding result with GST-WWP1.3 [5], with GST-WWP1.1 [6], with GST-WWP1.2 [7], in the assay with GST-WWP1.4 [8] and with GST alone was “no binding (tested: 30 µM peptide)” in each case.

B4: Mutant Nedd PY motif peptide, Biotin-Ahx-IPGTPPPNHDSLRL-CONH2 (peptide)
peptide: {Biotin-Ahx}-IPGTPPPNHDSLRL-NH2
SMILES: CC[C@H](C)[C@H](NC(=O)CCCCCNC(=O)CCCC[C@@H]1SC[C@@H]2NC(=O)N[C@@H]21)C(=O)N1CCC[C@H]1C(=O)NCC(=O)N[C@H](C(=O)N1CCC[C@H]1C(=O)N1CCC[C@H]1C(=O)N1CCC[C@H]1C(=O)N[C@@H](CC(N)=O)C(=O)N[C@@H](Cc1c[nH]cn1)C(=O)N[C@@H](CC(=O)O)C(=O)N[C@@H](CO)C(=O)N[C@@H](CC(C)C)C(=O)N[C@@H](CCCNC(=N)N)C(=O)N[C@@H](CC(C)C)C(N)=O)[C@@H](C)O
Consider B4, for which the binding result in the assay with GST-WWP1.3 [5], with GST-WWP1.1 [6], with GST-WWP1.2 [7], with GST-WWP1.4 [8] and in the assay with GST alone was “no binding (tested: 30 µM peptide)” throughout.

B5: Smad1 PY motif peptide PADTPPPAYLPPED (peptide)
peptide: {Biotin-Ahx}-PADTPPPAYLPPED-NH2
SMILES: CC(C)C[C@H](NC(=O)[C@H](Cc1ccc(O)cc1)NC(=O)[C@H](C)NC(=O)[C@@H]1CCCN1C(=O)[C@@H]1CCCN1C(=O)[C@@H]1CCCN1C(=O)[C@@H](NC(=O)[C@H](CC(=O)O)NC(=O)[C@H](C)NC(=O)[C@@H]1CCCN1C(=O)CCCCCNC(=O)CCCC[C@@H]1SC[C@@H]2NC(=O)N[C@@H]21)[C@@H](C)O)C(=O)N1CCC[C@H]1C(=O)N1CCC[C@H]1C(=O)N[C@@H](CCC(=O)O)C(=O)N[C@@H](CC(=O)O)C(N)=O
notes: also called Smad 1 PY peptide; Biotin-Ahx-PADTPPPAYLPPED-CONH2
Turning to B5, the binding result with GST-WWP1.3 [1], with GST-WWP1.1 [2], with GST-WWP1.2 [3] and with GST-WWP1.4 [4] was “no binding” in each case.

B6: Smad2 PY motif peptide IPETPPPGYISEDG (peptide)
peptide: IPETPPPGYISEDG
modifications: not fully specified (N-terminus); also: biotin with C6 linker, end not given here
notes: also called Smad 2 peptide
In the case of B6, the binding result with GST-WWP1.3 [1], in the assay with GST-WWP1.1 [2], in the assay with GST-WWP1.2 [3] and in the assay with GST-WWP1.4 [4] was “no binding” each time.

B7: Smad7 PY motif peptide ELESPPPPYSRYPM (peptide)
peptide: ELESPPPPYSRYPM
modifications: not fully specified (N-terminus); also: biotin with C6 linker, end not given here
notes: also called Smad 7 peptide
On to B7, for which, in the assay with GST-WWP1.2 [9], the affinity, expressed as Kd, was 2400 nM.

B8: Smad6 PY motif peptide GPESPPPPYSRLSP (peptide)
peptide: GPESPPPPYSRLSP
modifications: not fully specified (N-terminus); also: biotin with C6 linker, end not given here
notes: also called Smad 6 peptide
With B8, the binding result with GST-WWP1.3 [1], in the assay with GST-WWP1.2 [3] and in the assay with GST-WWP1.4 [4] was “binds” each time.

B9: WBP1 PY motif peptide, Biotin-Ahx-HPGTPPPPYTVGPG-CONH2 (peptide)
peptide: {Biotin-Ahx}-HPGTPPPPYTVGPG-NH2
SMILES: CC(C)[C@H](NC(=O)[C@@H](NC(=O)[C@H](Cc1ccc(O)cc1)NC(=O)[C@@H]1CCCN1C(=O)[C@@H]1CCCN1C(=O)[C@@H]1CCCN1C(=O)[C@@H]1CCCN1C(=O)[C@@H](NC(=O)CNC(=O)[C@@H]1CCCN1C(=O)[C@H](Cc1c[nH]cn1)NC(=O)CCCCCNC(=O)CCCC[C@@H]1SC[C@@H]2NC(=O)N[C@@H]21)[C@@H](C)O)[C@@H](C)O)C(=O)NCC(=O)N1CCC[C@H]1C(=O)NCC(N)=O
notes: also called WBP1 peptide
Consider B9, for which the binding result in the assay with GST-WWP1.3 [10] is “binds”; with GST-WWP1.2 [11], “binds”; in the assay with GST-WWP1.4 [12], “binds”; in the assay with GST alone it was “no binding (tested: 30 µM peptide)”.

As a reminder, the Kd is the constant that tells how readily two partners part at equilibrium. A low value points to tighter binding.
